Measured values published in patent US7399869B2, “Fibroblast activation protein inhibitor compounds and methods” (Genentech, Inc., priority 2005, dated 2008).

Experiments:
[1] = substrate: CC(=O)NCC(=O)N1CCCC1C(=O)Nc1ccc2c(C(F)(F)F)c(CC(N)=O)c(=O)oc2c1; assay: Hydrolysis of C-terminal coumarin dipeptide substrates by DPP-4 (kinetic constants); assay type: biochemical; conditions: other: DPP-4, substrates with blocked N-termini, 23° C., pH 7.4, NC = no cleavage up to 1 mM substrate
Experimental: (§1) The relative cleavage rates by FAP and several dipeptidases of N-blocked (8) and unblocked (7) Gly-Pro dipeptide substrates were measured.
(§2) The cleavage (hydrolysis) rates of various C-terminal coumarin dipeptide substrates 7-16 by FAP and DPP-4 were measured (Tables 4 and 5). The amino-terminus of the substrates was unblocked and the amino acids were varied in Table 4. The amino-terminus of the substrates was blocked and the amino acids were varied in Table 5. To extend the results obtained with the dipeptide substrate library, kinetic parameters were determined for cleavage of the unblocked dipeptide substrates by FAP (Table 4). The catalytic efficiency (kcat/Km) for substrate cleavage was greatest with Ile-Pro-AFC, followed by Ala-Pro-, Gly-Pro- and Phe-Pro-AFC, consistent with the dipeptide substrate library results (FIG. 5). […] Kinetic constants for cleavage of Ala-Pro-AFC and Gly-Pro-AFC by DPP-4 were determined (Table 4). The catalytic efficiency for Ala-Pro-AFC hydrolysis was greater than that for Gly-Pro-AFC, and consistent with the dipeptide library.
(§3) Protease Assays—Protease activity was monitored continuously using a SpectraMax M2 microplate reader (Molecular Devices Corp., Sunnyvale Calif.) in the kinetic mode. Assays were conducted at 23° C. in 50 mM Tris (pH 7.4), 100 mM NaCl, 1 mM EDTA. The excitation/emission wavelengths for the different fluorogenic substrates were 360/460 nm (AMC), 400/505 nm (AFC), 340/425 nm (MNA), 340/510 nm (EDANS), and 337/425 nm (Abs). Standard curves of the appropriate fluorescent product versus concentration were used to convert relative fluorescence units to nmol of product produced. Substrates in the X-Pro-AMC library were used in rate assays at 5 μM final concentration. […] The kinetic parameters were calculated from Michaelis-Menten plots (V0 versus [S]) with nonlinear regression analysis using GraphPad software. kcat values were calculated under the assumption that each protease was 100% active.
(§4) When saturating amounts of substrate could not be achieved, catalytic efficiencies (kcat/Km) were determined under pseudo-first order conditions ([S]<<the estimated Km) and fit to the following equation: Ln[St/S0]=−kobst, where St is the concentration of substrate remaining at time t, S0 is the initial substrate concentration and kobs is the apparent first order substrate cleavage constant equal to (kcat/Km) times ET, the total enzyme concentration (Copeland, R. (2000) Enzymes, A Practical Introduction to Structure, Mechanism, and Data Analysis, 2nd Ed., John Wiley and Sons, Inc, New York). The linear relationship of Ln[St/S0] versus time allows calculation of kcat/Km by dividing the slope of the plot by ET.

[2] = substrate: NCC(=O)N1CCCC1C(=O)Nc1ccc2c(C(F)(F)F)c(CC(N)=O)c(=O)oc2c1; assay: as above; assay type: biochemical; conditions: other: DPP-4, substrates with unblocked N-termini, 23° C., pH 7.4
Experimental: as §1, §2, §3, §4

B1: DPP-4 (Homo sapiens) (protein)
chain: SRKTYTLTDYLKNTYRLKLYSLRWISDHEYLYKQENNILVFNAEYGNSSVFLENSTFDEFGHSINDYSISPDGQFILLEYNYVKQWRHSYTASYDIYDLNKRQLITEERIPNNTQWVTWSPVGHKLAYVWNNDIYVKIEPNLPSYRITWTGKEDIIYNGITDWVYEEEVFSAYSALWWSPNGTFLAYAQFNDTEVPLIEYSFYSDESLQYPKTVRVPYPKAGAVNPTVKFFVVNTDSLSSVTNATSIQITAPASMLIGDHYLCDVTWATQERISLQWLRRIQNYSVMDICDYDESSGRWNCLVARQHIEMSTTGWVGRFRPSEPHFTLDGNSFYKIISNEEGYRHICYFQIDKKDCTFITKGTWEVIGIEALTSDYLYYISNEYKGMPGGRNLYKIQLSDYTKVTCLSCELNPERCQYYSVSFSKEAKYYQLRCSGPGLPLYTLHSSVNDKGLRVLEDNSALDKMLQNVQMPSKKLDFIILNETKFWYQMILPPHFDKSKKYPLLLDVYAGPCSQKADTVFRLNWATYLASTENIIVASFDGRGSGYQGDKIMHAINRRLGTFEVEDQIEAARQFSKMGFVDNKRIAIWGWSYGGYVTSMVLGSGSGVFKCGIAVAPVSRWEYYDSVYTERYMGLPTPEDNLDHYRNSTVMSRAENFKQVEYLLIHGTADDNVHFQQSAQISKALVDVGVDFQAMWYTDEDHGIASSTAHQHIYTHMSHFIKQCFSLP
notes: DPP-4 (amino acids 39-766); FLAG (N); made in house; host or cells: 293 cells (secreted, purified from serum-free conditioned media)
- kcat [1]: < 0.07 s⁻¹
- kcat/Km [1]: 36 ± 3 M⁻¹ s⁻¹
- Km [2]: 76 ± 10 µM
- kcat [2]: 121 ± 5 s⁻¹
- kcat/Km [2]: 1.6e+06 M⁻¹ s⁻¹
